Assay results taken from US20120177664A1 (IMMUNAS PHARMA, published 2012).
Where a chain is given by its changes, count along the chain named.

B1: IR-028 antibody (antibody, V domains shown)
VH: DVQLVESGGGLVQPGGSRKLSCAASGFTFSSFGMHWVRQAPEKGLEWVAYISSGSSTIYYADTVKGRFTISRDNPKNTLFLQMTSLRSEDTAMYYCARTGTGAMDYWGQGTSVTVSS
VL: DVVMTQTPLSLPVSLGDQASISCRSSQSLVHSNGNTYLHWYLQKPGQSPKLLIYKVSNRFSGVPDRFSGSGSGTDFTLKISRVEAEDLGVYFCSQSTHVPPTFGGGTKLEIK
notes: mouse IgG2b
B2: IR-128 antibody (antibody, V domains shown)
VH: DVQLVESGGGLVQPGGSRKLSCAASGFTFSSFGMHWVRQAPEKGLEWVAYISSGSSTIYYADTVKGRFTISRDNPKNTLFLQMTSLRSEDTAMYYCAREGHFDYWGQGTTLTVSS
VL: B1 VL
notes: mouse IgG2a
B3: IR-039 antibody (antibody, mouse IgG2b, V domains shown)
VH: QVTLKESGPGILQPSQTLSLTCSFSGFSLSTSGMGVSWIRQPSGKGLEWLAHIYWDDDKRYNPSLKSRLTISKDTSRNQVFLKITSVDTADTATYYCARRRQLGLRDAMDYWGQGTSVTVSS
VL: B1 VL with V3L, L29I, H39E, F92Y, S94F, S96G, T97S, P101L, G105A, I111L
notes: mouse IgG2b
B4: IR-037 antibody (antibody, mouse IgG1, V domains shown)
VH: B2 VH with E99D, H101T, F102M, T110S, L111V
VL: B1 VL with V2A, V30E, H31N, H39N, K50Q, K55R, P64L, S94L, S96V
notes: mouse IgG1
B5: IR-036 antibody (antibody, mouse IgG2b, V domains shown)
VH: QVTLKESGPGILQPSQTLSLTCSFSGFSLSTSGMGVSWIRQPSGKGLEWLAHIYWDDDKRYNPSLKSRLTISKDTSRNQVFLKITSVDTADTATYYCARRANYYGYGMDAMDYWGQGTSVTVSS
VL: B1 VL with V3L, L29I, H39E, F92Y, S94F, S96G, T97S, P101L, G105A, I111L
notes: mouse IgG2b
B6: IR-077 antibody (antibody, mouse IgG2a, V domains shown)
VH: DVQLVESGGGLVQPGGSRKLSCAASGFTFSSFGMHWVRQAPEKGLEWVAYISSGSSTIYYADTVKGRFTISRDNPKNTLFLQMTSLRSEDTAMYYCARSGYRYSYYAMDYWGQGTSVTVSS
VL: B1 VL with V3L, L29I, H39E, F92Y, S94F, S96G, T97S, P101L, G105A, I111L
notes: mouse IgG2a
B7: IR-079 antibody (antibody, mouse IgG2b, V domains shown)
VH: DVQLVESGGGLVQPGGSRKLSCAASGFTFSSFGMHWVRQAPEKGLEWVAYISSGSSTIYYADTVKGRFTISRDNPKNTLFLQMTSLRSEDTAMYYCARYGTLYYYAMDYWGQGTSVTVSS
VL: B1 VL with V3L, L29I, H39E, F92Y, S94F, S96G, T97S
notes: mouse IgG2b
B8: IR-125 antibody (antibody, mouse IgG2b, V domains shown)
VH: B6 VH with S99A, Y101G, R102Y, Y103S, S104L, Y105S
VL: B1 VL with V3L, L29I, H39E, F92Y, S94F, S96G, T97S
notes: mouse IgG2b
B9: IR-124 antibody (antibody, mouse IgG2a, V domains shown)
VH: B1 VH with R98I, T99Y, G100Y, T101Y, A103S, M104S, D105Y, S112T, V113L
VL: B1 VL with V3L, L29I, H39E, F92Y, S94F, S96G, T97S, G105A, I111L
notes: mouse IgG2a
B10: IR-127 antibody (antibody, mouse IgG2a, V domains shown)
VH: B6 VH with S99K, Y101T, R102Y, S104R, Y106D, M108F, S116T, V117L
VL: B1 VL with V3L, L29I, H39E, F92Y, S94F, S96G, T97S
notes: mouse IgG2a
B11: IR-146 antibody (antibody, mouse IgG2a, V domains shown)
VH: B1 VH with T99G
VL: B1 VL with V3L, L29I, H39E, F92Y, S94F, S96G, T97S
notes: mouse IgG2a
B12: IR-038 antibody (antibody, mouse IgG2b, V domains shown)
VH: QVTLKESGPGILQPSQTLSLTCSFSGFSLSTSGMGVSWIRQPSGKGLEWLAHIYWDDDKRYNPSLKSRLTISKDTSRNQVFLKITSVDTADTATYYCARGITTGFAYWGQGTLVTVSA
VL: B1 VL with V3L, L29I, H39E, F92Y, S94F, S96G, T97S, P101L, G105A, I111L
notes: mouse IgG2b
B13: IR-062 antibody (antibody, mouse IgG2b, V domains shown)
VH: B1 VH with T99Y, G100Y, T101H, G102Y
VL: B1 VL with V3L, L29I, H39E, F92Y, S94F, S96G, T97S
notes: mouse IgG2b
B14: IR-057 antibody (antibody, mouse IgG1, V domains shown)
VH: B1 VH with T99Y, T101N, G102Y
VL: B1 VL with V3L, L29I, H39E, F92Y, S94F, S96G, T97S
notes: mouse IgG1
B15: IR-121 antibody (antibody, mouse IgG2b, V domains shown)
VH: B1 VH with R98T, T99Y, T101I, G102Y
VL: B1 VL with V3L, L29I, H39E, F92Y, S94F, S96G, T97S
notes: mouse IgG2b
B16: IR-081 antibody (antibody, mouse IgG2b, V domains shown)
VH: DVQLVESGGGLVQPGGSRKLSCAASGFTFSSFGMHWVRQAPEKGLEWVAYISSGSSTIYYADTVKGRFTISRDNPKNTLFLQMTSLRSEDTAMYYCARRWGEGAMDYWGQGTSVTVSS
VL: B1 VL with V3L, L29I, H39E, F92Y, S94F, S96G, T97S
notes: mouse IgG2b
B17: IR-095 antibody (antibody, mouse IgG2b, V domains shown)
VH: B5 VH with N102P, Y103R, Y104L, G105Y, M108Y
VL: B1 VL with V3L, L29I, H39E, F92Y, S94F, S96G, T97S, P101L, G105A, I111L
notes: mouse IgG2b
B18: IR-067 antibody (antibody, mouse IgG2b, V domains shown)
VH: B16 VH with R99S, W100G, E102N, G103Y, A104L
VL: B1 VL with V3L, L29I, H39E, F92Y, S94F, S96G, T97S, P101L, G105A, I111L
notes: mouse IgG2b
B19: IR-152 antibody (antibody, mouse IgG2b, V domains shown)
VH: B16 VH with R99G, W100G, G101H, E102V
VL: B1 VL with P101W
notes: mouse IgG2b
B20: IR-083 antibody (antibody, mouse IgG2b, V domains shown)
VH: B16 VH with S31R, H35Y, T63I, W100G, G101Y, E102Y, G103E
VL: B1 VL with V3L, L29I, H39E, E86D, F92Y, S94F, S96G, T97S
notes: mouse IgG2b
B21: IR-063 antibody (antibody, mouse IgG2b, V domains shown)
VH: B2 VH with H101D
VL: B1 VL with P101L, G105A, I111L
notes: mouse IgG2b
B22: IR-041 antibody (antibody, mouse IgG2a, V domains shown)
VH: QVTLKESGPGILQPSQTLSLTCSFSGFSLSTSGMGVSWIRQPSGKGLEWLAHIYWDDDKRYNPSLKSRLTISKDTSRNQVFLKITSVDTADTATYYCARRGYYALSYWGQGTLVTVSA
VL: B1 VL with V3L, L29I, H39E, F92Y, S94F, S96G, T97S, P101L, G105A, I111L
notes: mouse IgG2a
B23: IR-060 antibody (antibody, mouse IgG2a, V domains shown)
VH: B6 VH with S99G, Y101N, R102Y, Y103L, S104R
VL: B1 VL with V3L, L29I, H39E, F92Y, S94F, S96G, T97S, P101L, G105A, I111L
notes: mouse IgG2a
B24: IR-094 antibody (antibody, mouse IgG2b, V domains shown)
VH: EVKLEESGGGLVQPGGSMKLSCVASGFTFSNYWMNWVRQSPEKGLEWVAEIRLKSNNYATHYAESVKGRFTISRDDSKSSVYLQMNNLRAEDTGIYYCTRRGPSGYDRAWFAYWGQGTLVTVSA
VL: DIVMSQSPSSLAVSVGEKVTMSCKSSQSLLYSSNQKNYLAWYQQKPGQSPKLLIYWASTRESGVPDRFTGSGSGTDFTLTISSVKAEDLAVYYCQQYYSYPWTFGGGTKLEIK
notes: mouse IgG2b

Biological target: T1, A beta oligomer (synthetic A beta1-40, HCl form, 0.1 mg/ml in PBS, incubated at 37 degrees C for one hour) (UniProt P05067 672-711)
T1 construct: domain: A beta1-40; non-fibrous multimer of the peptide; also called A beta 1-40 oligomer
Assay: SPR (Biacore 3000)
Method: The analysis was carried out by Surface Plasmon Resonance (SPR) using Biacore 3000 (GE Healthcare Sciences).

Row | Binder | Kd [µM] | koff [s⁻¹] | kon [M⁻¹ s⁻¹]
1 | B1 | 0.852 | 0.27 | 317000
2 | B2 | 1.07 | 0.37 | 345000
3 | B3 | 0.0474 | 0.00711 | 150000
4 | B4 | 0.659 | 0.0609 | 92400
5 | B5 | 0.1 | 0.00876 | 87600
6 | B6 | 0.55 | 0.153 | 278000
7 | B7 | 1.05 | 0.297 | 282000
8 | B8 | 0.0788 | 0.00395 | 50100
9 | B9 | 0.141 | 0.00995 | 70400
10 | B10 | 1.02 | 0.261 | 256000
11 | B11 | 1.06 | 0.383 | 361000
12 | B12 | 0.0843 | 0.00752 | 89200
13 | B13 | 0.364 | 0.139 | 382000
14 | B14 | 0.156 | 0.0579 | 370000
15 | B15 | 0.0842 | 0.00831 | 98700
16 | B16 | 1.25 | 0.421 | 336000
17 | B17 | 0.035 | 0.00331 | 94600
18 | B18 | 0.549 | 0.118 | 215000
19 | B19 | 0.0588 | 0.00227 | 38600
20 | B20 | 0.699 | 0.431 | 617000
21 | B21 | 1.27 | 0.145 | 114000
22 | B22 | 1.37 | 0.0949 | 69400
23 | B23 | 2.61 | 0.2 | 76700
24 | B24 | 0.0594 | 0.0215 | 362000
